Assay [1] deals with Concholepas concholepas hemocyanin, native (Concholepas concholepas). The assay is described as follows: negative-stain transmission electron microscopy; hemocyanins 0.6 mg/ml on parlodion-coated copper grids, 1-2% uranyl acetate; didecamers, decamers and dissociated structures counted in about 20 images.
The target of assay [2] is Fissurella latimarginata hemocyanin, native (Fissurella latimarginata). The assay is described as above.

As to “Concholepas concholepas hemocyanin, native (complex)”, the stoichiometry N in assay [1] turned out to be 20.

In turn, “Fissurella latimarginata hemocyanin, native (natural protein)” displayed a stoichiometry N in assay [2] of 20.

One may read the stoichiometry N as a count of units in the complex or per binding partner.

The values above are taken from PMC6926458.
